These results are taken from publication PMC8615749, “Human Parainfluenza Virus 3 Phosphoprotein Is a Tetramer and Shares Structural and Interaction Features with Ebola Phosphoprotein VP35” (Biomolecules, 2021).

Data set [1] concerns the target T1, LC8 (DYNLL1), recombinant (human, UniProt P63167 1-89).
T1 construct: also called human LC8
Briefly: ITC. The following applies: both partners purified.

The data set “SEC-MALS” concerns the molecule itself. Briefly: SEC-MALS. Background: In gel filtration, larger molecules generally elute earlier.

T1 sequence (P63167 whole entry): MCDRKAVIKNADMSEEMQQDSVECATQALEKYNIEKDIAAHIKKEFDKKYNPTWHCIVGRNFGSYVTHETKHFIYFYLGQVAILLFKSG

B1: PMDL, recombinant construct of the human parainfluenza virus 3 phosphoprotein (HPIV3 P): short P_TAI (domain or fragment)
chain: SDHKPTSKGQKKISKTTTTNTDTKGQTETQTESSETQSNVDTASKIDFLAGLVIGVSMDNDTKLIQIQNEMLNLKADLKRMDESHRRLIENQREQLSLITSLISNLKIMT
notes: source: E. coli Rosetta DE3, purified (TALON His-Tag resin, SEC Superdex 75)
For orientation: Kd means the equilibrium constant for the complex coming apart. A word on the stoichiometry N: it is the number of molecules, sites or subunits per partner or assembly. Take B1: the Kd in data set [1] is ~50 µM. Further, the “stoichiometry N” value in the data set “SEC-MALS” worked out at 4.

B2: Zaire Ebolavirus (EBOV) phosphoprotein VP35, construct of residues 65-145 (LC8 anchor 65-82 and mult (domain or fragment)
chain: NPKTRNSQTQTDPICNHSFEEVVQTLASLATVVQQQTIASESLEQRITSLENGLKPVYDMAKTISSLNRVCAEMVAKYDLL
notes: also called VP35 65-145; EBOV VP35 65-145
As to B2, the Kd in data set [1] was 0.13 µM. Moreover, the “stoichiometry N” value in “SEC-MALS” turned out to be 4.
